# Measurements published in PMC4756830 (Nucleic Acids Research, 2015).
# Biological target: the molecule itself
# Assay: SEC-MALS
protein,measurement,value
GabR from Bacillus subtilis with C-terminal His6-tag (natural protein) MDITITLDRSEQADYIYQQIYQKLKKEILSRNLLPHSKVPSKRELAENLKVSVNSVNSAYQQLLAEGYLYAIERKGFFVEELDMFSAEEHPPFALPDDLKEIHIDQSDWISFSHMSSDTDHFPIKSWFRCEQKAASRSYRTLGDMSHPQGIYEVRAAITRLISLTRGVKCRPEQMIIGAGTQVLMQLLTELLPKEAVYAMEEPGYRRMYQLLKNAGKQVKTIMLDEKGMSIAEITRQQPDVLVTTPSHQFPSGTIMPVSRRIQLLNWAAEEPRRYIIEDDYDSEFTYDVDSIPALQSLDRFQNVIYMGTFSKSLLPGLRISYMVLPPELLRAYKQRGYDLQTCSSLTQLTLQEFIESGEYQKHIKKMKQHYKEKRERLITALEAEFSGEVTVKGANAGLHFVTEFDTRRTEQDILSHAAGLQLEIFGMSRFNLKENKRQTGRPALIIGFARLKEEDIQEGVQRLFKAVYGHKKIPVTGD,stoichiometry N,2
